Data published in publication PMC7423370 (Science Advances, 2020).

Target: T1, human CLC-7 with C-terminal tandem twin Strep-tag (human, UniProt P51798 1-805)
T1 sequence: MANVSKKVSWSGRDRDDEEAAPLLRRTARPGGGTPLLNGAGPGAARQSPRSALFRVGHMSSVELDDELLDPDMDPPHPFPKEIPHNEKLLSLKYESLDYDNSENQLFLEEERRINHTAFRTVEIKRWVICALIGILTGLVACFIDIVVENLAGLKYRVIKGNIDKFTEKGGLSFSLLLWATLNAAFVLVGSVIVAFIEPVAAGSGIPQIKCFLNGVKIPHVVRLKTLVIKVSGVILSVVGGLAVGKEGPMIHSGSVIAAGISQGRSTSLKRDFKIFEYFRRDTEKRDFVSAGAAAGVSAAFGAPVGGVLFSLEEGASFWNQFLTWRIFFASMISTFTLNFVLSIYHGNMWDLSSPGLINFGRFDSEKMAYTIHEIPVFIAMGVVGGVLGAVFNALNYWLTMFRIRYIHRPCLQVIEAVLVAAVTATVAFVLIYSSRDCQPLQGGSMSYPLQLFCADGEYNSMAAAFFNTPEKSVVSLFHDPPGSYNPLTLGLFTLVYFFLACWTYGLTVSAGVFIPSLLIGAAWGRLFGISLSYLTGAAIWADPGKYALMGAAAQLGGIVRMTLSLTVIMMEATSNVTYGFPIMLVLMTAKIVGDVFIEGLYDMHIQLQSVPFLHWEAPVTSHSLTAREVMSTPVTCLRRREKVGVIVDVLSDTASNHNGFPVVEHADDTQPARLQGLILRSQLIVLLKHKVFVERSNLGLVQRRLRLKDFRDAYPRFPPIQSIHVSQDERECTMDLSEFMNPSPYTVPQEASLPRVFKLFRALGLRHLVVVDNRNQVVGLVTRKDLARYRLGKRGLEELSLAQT
Experiment: cryo-EM structure

B1: human Ostm1, no tag (natural protein)
chain: ALPFGSSPHRVFHDLLSEQQLLEVEDLSLSLLQGGGLGPLSLPPDLPDLDPECRELLLDFANSSAELTGCLVRSARPVRLCQTCYPLFQQVVSKMDNISRAAGNTSESQSCARSLLMADRMQIVVILSEFFNTTWQEANCANCLTNNSEELSNSTVYFLNLFNHTLTCFEHNLQGNAHSLLQTKNYSEVCKNCREAYKTLSSLYSEMQKMNELENKAEPGTHLCIDVEDAMNITRKLWSRTFNCSVPCSDTVPVIAVSVFILFLPVVFYLSSFLHSEQKKRKLILPKRLKSSTSFANIQENSN
modifications: glycosylation (NAG) at Asn93, Asn128, Asn163, Asn184, Asn194, Asn216, Asn263
binding result: binds
